Tests used:
[1] = test system: His-BcpT (recombinant N-terminal His-tagged BcpT without signal sequence)

Factor Xa
cleavage of His-tagged BcpT (Coomassie gel, N-terminal sequencing of fragments) [1]: FXa cleaves after R65 and R199 of two Leu-Thr-Arg (LTR) motifs | cleavage by FXa (Coomassie gel) (His-BcpT R199N): are not cleaved by FXa (other than releasing the His-tag) | cleavage by FXa (Coomassie gel) (His-BcpT R65N:R199N): are not cleaved by FXa (other than releasing the His-tag) | cleavage by FXa (Coomassie gel) (His-BcpT R65N): is cleaved only at the R199 site

doripain A activated with trypsin, DpnA(a)
cleavage and activation of BcpT (Coomassie gel, agar overlay) [1]: The active forms of both proteases cleave and activate BcpT | cleavage of BcpT site mutant (Western immunoblot) (His-BcpT R199N): both proteases can cleave BcpT^R199N at the R65 site, which FXa does not

doripain A, full-length recombinant proenzyme (not trypsin treated)
activation of BcpT (Coomassie gel, agar overlay) [1]: DpnA remains full-length and cannot activate BcpT

doripain B (DpnB)
cleavage and activation of BcpT (Coomassie gel, agar overlay) [1]: The active forms of both proteases cleave and activate BcpT | cleavage of BcpT site mutant (Western immunoblot) (His-BcpT R199N): both proteases can cleave BcpT^R199N at the R65 site, which FXa does not
